Assay: soluble on expression in E. coli; label from the status in PepcDB or PDB records

| Sequence | soluble on expression in E. coli |
| --- | --- |
| MNLPGAAEPQGGNEIPEYTGVAWHYGQPLVEQRYFERSGGFVDRSHRGVLCISGEDAAVFLNNLVSQKLIDLPHPWAGEALDLDIQGHVVHHMEIIATDEVFYVHVPAAQLESLHTFFTRMIFWSKVTIEVIDAAVISVISAQHLDALVDVPLPEALAVSPVIDFSLPRRDILVPRASLMAVAASLQEHGFQPAGMMAYTAARVRSVQPVMSLDMDATTIPHEAASLIGRGDHIGAVHLNKGCYRGQETVGRVENLGRSPRVLVMVLIDGSAPEQPHPAAPLTAGGRTVGFLGTVVDDFELGPIGLAVVKRSALKSATLQAGDDVALSIDPDSLPHDDGEKAGRVAINKLRGL | not soluble |
| MNLTNYHSHTLYCDGRAGMEDFIRFAISRGFTSYGISSHAPLPFPTHWTMEWDRMDDYLDEFTRMKEKYASEIELAVGLEIDYLNEDSNPSVRRFQELPLDYRIGSVHLLYNDRDEVVDIDVCAEVFRDIVDQHFGGDLDRVIHLYYDRLLRMVELGGFDILGHADKMHHNAACYRPGLLDESWYDALIHDYFSAVAAKGYIVEINTKALHHLNTFFPNERYFPLLKELGVRVQVNSDSHYPERINSGRPEALAALQKAGFETVTEWHGGKWIEMPL | not soluble |
| MNLYLITFQSSLNRIESVYDCHKDLFVEIEKFFTLHLVPYTEAASIPADAYRMAFIASGGVEKMVTQHFELLPYPIHLLTDGQQNSLAASLEIATWIRSKGMKVHIIHGTIPNMVKQLIDHHKAFAAQREVRGKRIGVVGYSSPWLVASNVDYLLAKRRWGIEFIDIPMEEVYCLFYQIKDDDIGYEASVFANRAIACREGTPEDLLKAMRLYQAVKIICEKKKLDAVTLSCFSLIEKLGTTGCLALALLNDEGIPAGCEGDLQSIFTLLIAKTLTGQAGFMANPAFINDDQNEIVMAHCTIATKMVDQFIIRNHFETETGIAIQGILHPGGITMIKCAGECLDEYFVSTGQLIENTNYINACRTQARIKLDKPVDYFMRNPLGNHHIILMGDHEKVIHEFMQLNSCKLVE | not soluble |
| MNMIDQLNITDFQVFTDENSDKFVSKIYKFSSKMILSDFHAQPQGFLNGGASLALAEITAGMASNAIGSGQYFAFGQSINANHLNPKKCEGFVNARGLLLKNGKRNHVWEIKITDENETLISQITVVNALVPQKNSDKLEHHHHHH | soluble |
| MNMKTIEDVFIHLLSDTYSAEKQLTRALAKLARATSNEKLSQAFHAHLEETHGQIERIDQVVESESNLKIKRMKCVAMEGLIEEANEVIESTEKNEVRDAALIAAAQKVEHYEIASYGTLATLAEQLGYRKAAKLLKETLEEEKATDIKLTDLALNNVNKKAENKA | soluble |
| MNMVGHSYGNIAIVYYMLQHGSDTSLPKLVKQVDIAGHFNGIIGMDEPEENSLDGEGKPTSMTGSYEELLSLGDNYPQGQVEVLNIYGNTGKESDERVTNLSSQSLAYLLKGHVKSYQEKKITGLNGQHSKLHETTLVDKPLNAFLWGK | not soluble |
| MNNFILLEEQLIKKSQQKRRTSPSNFKVRFFVLTKASLAYFEDRHGKKRTLKGSIELSRIKCVEIVKSDISIPCHYKYPFQVVHDNYLLYVFAPDRESRQRWVLALKEETRNNNSLVPKYHPNFWMDGKWRCCSQLEKLATGCAQYDPTKNASKKPLPPTPEDNRRPLWEPEETVVIALYDYQTNDPQELALRRNEEYCLLDSSEIHWWRVQDRNGHEGYVPSSYLVEKSPNNLETYEWYNKSISRDKAEKLLLDTGKEGAFMVRDSRTAGTYTVSVFTKAVVSENNPCIKHYHIKETNDNPKRYYVAEKYVFDSIPLLINYHQHNGGGLVTRLRYPVCFGRQKAPVTAGLRYGKWVIDPSELTFVQEIGSGQFGLVHLGYWLNKDKVAIKTIREGAMSEEDFIEEAEVMMKLSHPKLVQLYGVCLEQAPICLVFEFMEHGCLSDYLRTQRGLFAAETLLGMCLDVCEGMAYLEEACVIHRDLAARNCLVGENQVIKVSDFGMTRFVLDDQYTSSTGTKFPVKWASPEVFSFSRYSSKSDVWSFGVLMWEVFSEGKIPYENRSNSEVVEDISTGFRLYKPRLASTHVYQIMNHCWKERPEDRPAFSRLLRQLAEIAESGL | soluble |
| MNNILNQIKKEVNMDLLNGLWPGFKRAAFALYDDEHVYVFHHPLFLKDNDEYRVLKWEEQFKGDTCILFKDYPTAIVNMNRYKDYASLLAIVVHELFHCYQYLNKESRFPNESLGFQYPIIEENIQLRNKERICLYDAVHCKSQAEKNNYIKQFIELREQRASVMGEAFITYEYMVESIEGPAWYVEMNAYNTVCKSDESDTLRKYSGLILDVYDANCNMRKSCYSSGMLLCLLLDEILPEWKISFFNSDKSLYAFLKQNINVDLSLNNEITISKETKQILHFVQNERDKEIKQFYGEEGYDLYIVGDIKLNSFNPMNVKLNGNKVLHKTFLSVSIHNKTYMINQPVLASFEEDFKNMTQVHIIMNEKPIETKNG | not soluble |
| MNNKNLALKAPLSGPVMPLNRVPDPVFSSGTLGEGIAIDPLNDCLHAPCAGLVSHLARTRHALSLRADNGAELLLHVGLDTVQLQGEGFEALVEEGARVIEGQPLLRFDLDRVARGSRSLITVMILTNGDGFQVRPLTTNPVEVGAPLLQLSPEKAEQRPANPAPGEGSAQRQVRGRARVAHHGGLHARPAALLRKTAQGFSSQAELHFAGQVASVDSLVGIMGLGVAEQDEVEVICRGEDSEAALGALLAALASATAGAPKDAPRAIAPGEPARPAAVAGTLAGVCASPGLASGPLARLGAISLPADDGRHRPEEQHLALDQALQRVRDDVQGSLQQARLGGDENEAAIFSAHLALLEDPGLLDAADMLIDQGVGAAHAWHRAIQAQCEILQALGNLLLAERANDLRDLEKRVLRVLLGDTAPLRVPAGAIVAAREITPSDLAPLVDAGAAGLCMAEGGATSHVAILARSKGLPCLVALGAGLLELEEGRQVVLDAGQGRLELSPDARRLEQVALQVAQREEQRRRQQADAQREALTRDGRRIEIGANVASPREAAEAFANGADGVGLLRTEFLFLERRAAPDEEEQRNAYQEVLDAMGQRKVIIRTIDVGGDKHLDYLPLPVEENPALGLRGIHLGQARPELLDQQLRALLRVEPLERCRILLPMVSEVDELRAIRRRLGELATQLGIERLPELGVMIEVPSAALLADQLAEHADFLSIGTNDLSQYALAMDRCHAGLADRIDALHPALLRLIAQTCAGAARHGRWVGVCGALASDPLATPVLVGLGVEELSVGPNLVGEIKTRVRQLDAAECRRHAQALLDLGSARAVRDACLQ | not soluble |
| MNNQKQQKPTLSGQRFKTRKRDEKERFDPTQFQDCIIQGLTETGTDLEAVAKFLDASGAKLDYRRYAETLFDILVAGGMLAPGGTLADDMMRTDVCVFAAQEDLETMQAFAQVFNKLIRRYKYLEKGFEDEVKKLLLFLKGFSESERNKLAMLTGVLLANGTLNASILNSLYNENLVKEGVSAAFAVKLFKSWINEKDINAVAASLRKVSMDNRLMELFPANKQSVEHFTKYFTEAGLKELSEYVRNQQTIGARKELQKELQEQMSRGDPFKDIILYVKEEMKKNNIPEPVVIGIVWSSVMSTVEWNKKEELVAEQAIKHLKQYSPLLAAFTTQGQSELTLLLKIQEYCYDNIHFMKAFQKIVVLFYKAEVLSEEPILKWYKDAHVAKGKSVFLEQMKKFVEWLKNAEEESESEAEEGD | soluble |
| MNNQTMTFTPEQLRKHAQEMLRHAEQLEKTGITKDAIRKDMVPALRELMQAKHRAQKAVDELVDCVAELETRVGKFEKLVQEALR | not soluble |
| MNNVSEERVAEMIWDAVSEGATLKDVHGIPQDMMDGLYAHAYEFYNQGRLDEAETFFRFLCIYDFYNPDYTMGLAAVCQLKKQFQKACDLYAVAFTLLKNDYRPVFFTGQCQLLMRKAAKARQCFELVNERTEDESLRAKALVYLEALKTAETEQHSEQEKELEHHHHHH | soluble |
| MNNYDDLPCSIYFKKPTVQEFVDQPRVFEDSEVPAFQEVLQLPQERTKPPVPSTQPIVAAVEVAKKKSCLSAPKPRKEPPSHPALRQKTVAFGKTVNVSQTVEGTSRNSKKVLASTMSAQNTTTTEEQAAENWRDAMKTELQTIRTEIQEETARRQEELNAQNLVKMQELMSNFFQKITIPKQQAIEPVEKDKENFHESPRQSRQQKPASKIASAREVIKRDGVIPPEALTIIEQRLRSDPMFRQQIDNVLADAECDANRAAYSPPPPMSEVRYGSGVNPALMRETLTVERSIRYDNGLASIDSRQWTNERRDNRAPDSYRTYEPDQPCHSLYQKGQSISYYPSEAAGKTTARNNRTGYYVEDSSDHEEDVVVNKRGQNYHEQAVPETPAERERRIREKYARRK | not soluble |
| MNPDKTVLSCHNPEWRGERPAPSLIARCAQLAMLLEVSASPKPGNVDREHNYPDTCFEHFVASSVAVYPVFELAAKSTGRIGQLLRSAVYESSAWQQGGNTHFGAFLLLIPLAMAAGEISREQGEQPGCGKTFFRIEAEEFENLASHAHAFVRETDCEDAVEFYRAFGHAGVRVNSVEEFDLEDPEATSDLRNQNITLYSLMEIAKGYDLIANEWTSGFGRCLEGAKIILDFMDARNCREEALAGGSVSICSGTGINEAVVYTFLKLLSKHRDTFIQTKFDAETADYVSSRAGEVLSGWEISGKKAGDFASILPRIQEFDSELLDKRINPGSTADIIIAALFIALLGGLRF | not soluble |
| MNPERSERIEIPVLPLRDVVVYPHMVIPLFVGREKSIRCLEAAMDHDKKIMLVAQKEASTDEPGVNDLFTVGTVASILQMLKLPDGTVKVLVEGLQRARISALSDNGEHFSAKAEYLESPTIDEREQEVLVRTAISQFEGYIKLNKKIPPEVLTSLNSIDDPARLADTIAAHMPLKLADKQSVLEMSDVNERLEYLMAMMESEIDLLQVEKRIRNRVKKQMEKSQREYYLNEQMKAIQKELGEMDDAPDENEALKRKIDAAKMPKEAKEKAEAELQKLKMMSPMSAEATVVRGYIDWMVQVPWNARSKVKKDLRQAQEILDTDHYGLERVKDRILEYLAVQSRVNKIKGPILCLVGPPGVGKTSLGQSIAKATGRKYVRMALGGVRDEAEIRGHRRTYIGSMPGKLIQKMAKVGVKNPLFLLDEIDKMSSDMRGDPASALLEVLDPEQNVAFSDHYLEVDYDLSDVMFVATSNSMNIPAPLLDRMEVIRLSGYTEDEKLNIAKRHLLPKQIERNALKKGELTVDDSAIIGIIRYYTREAGVRGLEREISKLCRKAVKQLLLDKSLKHIEINGDNLHDYLGVQRFDYGRADNENRVGQVTGLAWTEVGGDLLTIETACVPGKGKLTYTGSLGEVMQESIQAALTVVRARAEKLGINPDFYEKRDIHVHVPEGATPKDGPSAGIAMCTALVSCLTGNPVRADVAMTGEITLRGQVLPIGGLKEKLLAAHRGGIKTVLIPFENKRDLEEIPDNVIADLDIHPVKRIEEVLTLALQNEPSGMQVVTAK | not soluble |
| MNPIEIIDKFYPQDTEQRHILLIHSLSVAQKALKIVDAHPNLPINRSFVREAALLHDIGIFMTDAPTIQCFGEHPYIAHGYLGADLLRKEGFERHALVCERHTGAGLTLEEIIERQLPVPHREMVPVTLEEQIICFADKFFSKTHLDEEKTVEKARKSIAKYGEEGLNRFDGWCSLFL | not soluble |
| MNPNPNVKYPIEGNQNVHFIKNTITKANILVGDYSYYDAKDGETFEDRVLHHYEFLGDRLIIGKFCCIASGVTFIMNGANHRMDGFSAYPFNIFGNGWEKYTPNLSDLPYKGDTVIGNDVWIGMDATIMPGIKIGDGAIIAAKSVVTRDVAPYTIVGGNPANKIRERFSNAIIEELLQIQWWHFDIEKITENIGAIVQGNIEPLRKLKRE | not soluble |
| MNPSLENLQLYPFQKLTKLFEDLVPRDSLPTPIGLHIGEPRHSTPEFIRQELINSLEGLAHYPTVLGTDRLRASIATWLTQRYHLSSIDPDTEVIPVNGSREALFSFAQAVIDTDHKAIQPAVVCQNPFYQIYEGAALLAGATPYFLNQLPENNFSADTAQLPDTVWERTQLVYICSPNNPTGKVLTLDEWKHLFDLSDRYGFVIAADECYSEIYFDEGHPPLGALEAAEKLGRSGFPRLVVFSSLSKRSNVPGMRSGFVAGDATILRKFLLYRTYHGSAMNPAVQAASTVAWSDEQHVAENRKLYYEKFTGAMHILGDTLPVSMPDAGFYLWLRTPVSGIEFSRRLYREGNVTVLPGSYLAREAHGMDPGEDFVRIALVAPVVECMEAMERIRDIARKF | not soluble |

From the DeepSol protein solubility set
